B1: Kremen1 (Krm1), full length, Flag-tagged or HA-tagged (receptor, UniProt Q99N43 20-473, looked up)
chain: ARPAPGPRSGPECFTANGADYRGTQSWTALQGGKPCLFWNETFQHPYNTLKYPNGEGGLGEHNYCRNPDGDVSPWCYVAEHEDGVYWKYCEIPACQMPGNLGCYKDHGNPPPLTGTSKTSNKLTIQTCISFCRSQRFKFAGMESGYACFCGNNPDYWKHGEAASTECNSVCFGDHTQPCGGDGRIILFDTLVGACGGNYSAMAAVVYSPDFPDTYATGRVCYWTIRVPGASRIHFNFTLFDIRDSADMVELLDGYTHRVLVRLSGRSRPPLSFNVSLDFVILYFFSDRINQAQGFAVLYQATKEEPPQERPAVNQTLAEVITEQANLSVSAAHSSKVLYVITPSPSHPPQTAPGSHSWAPSVGANSHRVEGWTVYGLATLLILTVTAVVAKILLHVTFKSHRVPASGDLRDCRQPGASGDIWTIFYEPSTTISIFKKKLKGQSQQDDRNPLVSD
notes: Kremen1 (Krm1), transmembrane receptor, full length; Two differently tagged copies of the same full-length protein (Flag-Krm1, HA-Krm1), each with ONE tag, written as one molecule for the self-association; In rows with truncated Krm1 or with Krm2 the Flag-tagged copy is the bait; Vector pCAG-IRES-EGFP or pCS2; also called Flag-Krm1; HA-Krm1; source: HEK293T, transfected, in lysate; not shown: …

Experiments:
[1] = target: B1; assay: cell-based or functional assay
[2] = target: the molecule itself; assay: cross-linking; HEK293T cells transfected with HA-Krm1 and Flag-Krm1, 0.2 mM BS3 (non cell-permeant) on ice for 30 min prior to lysis; straight western blots and anti-Flag immunoprecipitation with anti-HA blot

proportion of cleaved Caspase-3+ cells among HA+ HEK293T cells transfected with HA-Krm1 and either GFP or Krm1secECD; the pair interfered with is Krm1 with Krm1 (dimerization) [1]	Binder	stoichiometry N [2]
2 fold decrease	HA-Krm1secECD, secreted ectodomain of Krm1 (lacks the transmembrane and intracellular domains) (domain or fragment, UniProt Q99N43 21-392, looked up) RPAPGPRSGPECFTANGADYRGTQSWTALQGGKPCLFWNETFQHPYNTLKYPNGEGGLGEHNYCRNPDGDVSPWCYVAEHEDGVYWKYCEIPACQMPGNLGCYKDHGNPPPLTGTSKTSNKLTIQTCISFCRSQRFKFAGMESGYACFCGNNPDYWKHGEAASTECNSVCFGDHTQPCGGDGRIILFDTLVGACGGNYSAMAAVVYSPDFPDTYATGRVCYWTIRVPGASRIHFNFTLFDIRDSADMVELLDGYTHRVLVRLSGRSRPPLSFNVSLDFVILYFFSDRINQAQGFAVLYQATKEEPPQERPAVNQTLAEVITEQANLSVSAAHSSKVLYVITPSPSHPPQTAPGSHSWAPSVGANSHRVEGWT	–
–	B1	2

Source: paper PMC6494814, “Kremen1-induced cell death is regulated by homo- and heterodimerization” (Cell Death Discovery, 2019)
